In the series the target is T1, hRAR-γ binding to β-RARE (Homo sapiens, UniProt P13631).
T1 construct: fused to the amino terminal amino acid of full length hRAR-γ; 14 amino acids from the parental vector pEt3a (bacterially expressed preparation only) (N); made in house; host or cells: E. coli BL21 (DE3) plysS; also rVV-infected HeLa cells, rBV-infected Sf9 cells, yeast (ubiquitin fusion) and rabbit reticulocyte lysate
T1 sequence (P13631 1-454): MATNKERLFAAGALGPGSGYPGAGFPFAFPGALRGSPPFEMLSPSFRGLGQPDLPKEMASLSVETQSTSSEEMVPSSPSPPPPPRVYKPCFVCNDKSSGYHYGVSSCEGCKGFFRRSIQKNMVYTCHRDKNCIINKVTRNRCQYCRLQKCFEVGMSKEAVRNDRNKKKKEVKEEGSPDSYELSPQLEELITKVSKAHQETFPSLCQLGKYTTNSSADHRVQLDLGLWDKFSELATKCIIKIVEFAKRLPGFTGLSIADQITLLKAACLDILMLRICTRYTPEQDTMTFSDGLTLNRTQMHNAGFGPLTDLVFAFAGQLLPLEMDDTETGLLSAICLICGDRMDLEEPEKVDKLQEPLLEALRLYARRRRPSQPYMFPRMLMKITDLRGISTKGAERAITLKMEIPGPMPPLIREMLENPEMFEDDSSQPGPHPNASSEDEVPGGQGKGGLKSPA
T1 sequence (P28702 1-533 partner): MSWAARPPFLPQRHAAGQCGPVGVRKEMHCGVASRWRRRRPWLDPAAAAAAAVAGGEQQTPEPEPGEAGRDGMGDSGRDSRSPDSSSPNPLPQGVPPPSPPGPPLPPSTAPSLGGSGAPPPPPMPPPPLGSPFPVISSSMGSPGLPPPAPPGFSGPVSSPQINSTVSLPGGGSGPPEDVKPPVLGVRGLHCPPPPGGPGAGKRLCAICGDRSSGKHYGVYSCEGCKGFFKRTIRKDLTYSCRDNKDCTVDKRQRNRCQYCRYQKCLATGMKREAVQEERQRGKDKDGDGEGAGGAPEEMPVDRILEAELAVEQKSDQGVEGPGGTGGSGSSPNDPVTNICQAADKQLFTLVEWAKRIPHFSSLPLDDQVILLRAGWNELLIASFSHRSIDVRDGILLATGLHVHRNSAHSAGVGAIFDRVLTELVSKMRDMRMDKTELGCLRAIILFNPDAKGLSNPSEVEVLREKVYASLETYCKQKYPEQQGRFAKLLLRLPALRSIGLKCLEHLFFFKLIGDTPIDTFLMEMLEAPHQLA
The series can be described thus: Gel retardation assay of RAR binding to β-RARE (RBF complementation). The note with it: RBF activity, complementation gel retardation with bacterially-expressed hRAR-γ. Here is the method:
For gel retardation experiments comparing RAR and RXR subtypes and deletion mutants, all proteins were produced by in vitro translation in the presence of [^35S]methionine.
Purification of rVV- and rBV-expressed hRAR-γ is being described elsewhere (Chen et al., manuscript in preparation). […] All steps were carried out at 4° C. and RBF activity was monitored through all purification steps by a complementation gel retardation assay using bacterially-expressed hRAR-γ as described above. […] The column was washed with equilibration buffer until the A280 of the eluent returned to baseline. […] The column was washed with equilibration buffer until the A280 of the eluent returned to baseline and then with 4 column volumes of buffer A containing 0.45 M ammonium sulfate and 50 mM KCl. The column was then eluted with an 18 ml linear gradient from 0.45 to 0 M ammonium sulfate in buffer A containing 50 mM KCl.

B1: HAP-TSK: hydroxylapatite column-purified HeLa cell RBF, apparently homogeneous ~64 kDa polypeptide, predominantly hRXR-β (protein, UniProt P28702 1-533, looked up)
Retinoic acid receptor …: MSWAARPPFLPQRHAAGQCGPVGVRKEMHCGVASRWRRRRPWLDPAAAAAAAVAGGEQQTPEPEPGEAGRDGMGDSGRDSRSPDSSSPNPLPQGVPPPSPPGPPLPPSTAPSLGGSGAPPPPPMPPPPLGSPFPVISSSMGSPGLPPPAPPGFSGPVSSPQINSTVSLPGGGSGPPEDVKPPVLGVRGLHCPPPPGGPGAGKRLCAICGDRSSGKHYGVYSCEGCKGFFKRTIRKDLTYSCRDNKDCTVDKRQRNRCQYCRYQKCLATGMKREAVQEERQRGKDKDGDGEGAGGAPEEMPVDRILEAELAVEQKSDQGVEGPGGTGGSGSSPNDPVTNICQAADKQLFTLVEWAKRIPHFSSLPLDDQVILLRAGWNELLIASFSHRSIDVRDGILLATGLHVHRNSAHSAGVGAIFDRVLTELVSKMRDMRMDKTELGCLRAIILFNPDAKGLSNPSEVEVLREKVYASLETYCKQKYPEQQGRFAKLLLRLPALRSIGLKCLEHLFFFKLIGDTPIDTFLMEMLEAPHQLA
Turning to B1, the “Specific Activity” value is recorded as 7,750,000 cpm/μg.

Source of the values: patent US6635429B1, “Heterodimeric nuclear receptors proteins, genes encoding same, and usage thereof” (Institut National de la Sante et de la Recherche Medicale, priority 1992, dated 2003).
